# Assay results published in patent CN112745389A (REYOUNG SUZHOU BIOPHARMACEUTICAL CO LTD, dated 2021).
# T1: 人IL-5蛋白 (human interleukin-5) (human, UniProt P05113 20-134)
# T1 sequence (looked up): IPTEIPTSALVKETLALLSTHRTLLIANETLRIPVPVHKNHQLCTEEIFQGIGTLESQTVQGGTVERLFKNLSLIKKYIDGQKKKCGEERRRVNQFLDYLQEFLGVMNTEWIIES
# How the values were obtained:
# [1] = target: T1, 人IL-5蛋白 (human interleukin-5); experiment: cell-based or functional assay
# [2] = target: T1, 人IL-5蛋白 (human interleukin-5); experiment: affinity measurement (sensorgram, 1:1 binding model; Figure 3)
"IC50(ng/mL), 阻断增殖 (TF-1 proliferation, CellTiter-Glo) [1]",binding result [2],Binder
16.3 ng/mL,–,"RB0003-30E6D5 (antibody, V domains shown) VH: EVQLQQSGAELVKPGASVKLSCTTSGFNIKDYFIHWVKQRTEQGLEWIGRIDPEDGETKYAPKFQGKATITADTSSNTAYLQLSSLTSEDTAVYYCVSYSTYPDYWGQGTTLTVSS VL: HIVLTQSPALMSTSPGEKVTMTCSASSSVSYMYWYQQKPRSSPKPWIYLTSTLASGVPARFSGSGSGTSYSLTISSMEAEDAATYYCQQWSSTPFTFGSGTKLEIKR"
–,binds,"人源化32D12C12抗体 (humanized 32D12C12) (antibody, V domains shown) VH: EVQLVESGGGLVQPGGSLKLSCAASGFTFNTYAMNWVRQASGKGLEWVGRIRSKTANFATFYADSVTDRFTISRDDSKNTLYLQMNSLKTEDTAVYYCVRHGAYYTYDGAMDYWGQGTTVTVSS VL: DIQMTQSPSSLSASVGDRVTITCKASQDVRTAIAWYQQKPGKAPKLLIYWASTRHTGVPSRFSGSGSGTDYTLTISSLQPEDFATYYCQQHYSTPYTFGQGTKLEIK"
